Measurements: patent publication US20230265208A1

Legend:
[1] = molecular target: MUC1 on HCT116/MUC1 cells (human) (UniProt P15941); assay: flow cytometry on HCT116-MUC1 cells, 5 µg isotype control, 60 min on ice
[2] = molecular target: MUC1 on HCT116/MUC1 cells (human) (UniProt P15941); assay: flow cytometry titration on HCT116/MUC1 cells; isotype control

Sequence of MUC1 on HCT116/MUC1 cells (human) (P15941 24-1255): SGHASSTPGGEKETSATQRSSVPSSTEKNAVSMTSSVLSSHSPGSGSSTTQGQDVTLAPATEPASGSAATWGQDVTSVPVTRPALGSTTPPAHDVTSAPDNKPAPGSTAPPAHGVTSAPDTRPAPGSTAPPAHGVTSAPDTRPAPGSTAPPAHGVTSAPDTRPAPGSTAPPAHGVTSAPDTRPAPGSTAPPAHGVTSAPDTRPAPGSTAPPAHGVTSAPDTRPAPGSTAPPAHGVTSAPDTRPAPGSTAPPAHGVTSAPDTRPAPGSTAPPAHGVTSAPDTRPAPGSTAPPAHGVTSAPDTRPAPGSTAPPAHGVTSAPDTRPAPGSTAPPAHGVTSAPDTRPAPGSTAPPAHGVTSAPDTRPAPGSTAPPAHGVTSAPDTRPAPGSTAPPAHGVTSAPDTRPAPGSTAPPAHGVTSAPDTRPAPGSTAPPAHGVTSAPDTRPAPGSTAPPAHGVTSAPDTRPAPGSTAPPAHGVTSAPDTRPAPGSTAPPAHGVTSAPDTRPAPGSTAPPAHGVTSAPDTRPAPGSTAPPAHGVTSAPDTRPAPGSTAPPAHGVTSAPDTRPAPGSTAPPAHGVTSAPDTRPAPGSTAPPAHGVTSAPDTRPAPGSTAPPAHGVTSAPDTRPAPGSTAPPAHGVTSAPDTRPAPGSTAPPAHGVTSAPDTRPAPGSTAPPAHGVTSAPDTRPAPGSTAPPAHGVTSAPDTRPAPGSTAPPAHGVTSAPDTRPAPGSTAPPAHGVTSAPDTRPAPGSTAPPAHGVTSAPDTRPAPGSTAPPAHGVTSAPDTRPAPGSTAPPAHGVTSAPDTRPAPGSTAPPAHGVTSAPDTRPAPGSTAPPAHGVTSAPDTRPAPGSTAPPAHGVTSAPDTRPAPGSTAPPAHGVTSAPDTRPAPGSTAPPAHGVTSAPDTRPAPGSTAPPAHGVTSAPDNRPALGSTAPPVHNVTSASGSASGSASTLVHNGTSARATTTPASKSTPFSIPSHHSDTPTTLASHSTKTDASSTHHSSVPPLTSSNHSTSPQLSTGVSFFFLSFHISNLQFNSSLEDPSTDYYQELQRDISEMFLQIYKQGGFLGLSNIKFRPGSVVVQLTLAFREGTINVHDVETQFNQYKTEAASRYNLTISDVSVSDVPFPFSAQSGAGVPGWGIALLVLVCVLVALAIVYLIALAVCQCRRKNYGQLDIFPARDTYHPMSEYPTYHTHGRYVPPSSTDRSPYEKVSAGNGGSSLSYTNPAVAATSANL

## Control (antibody)
[1]
  number over the gate bar (share of cells in the positive gate): 0.6

## Human IgG (antibody)
[2]
  EC50: 0.292 nM
